Measurements from patent US20110015124A1 (TEMPLE UNIVERSITY OF THE COMMOMWEALTH SYSTEM OF HIGHER …, published 2011).
Starred links: 1 amine or outer side, 2 acyl side, 3 side chain; linkers in the order of their positions; H or OH if unused. Non-standard residues stand in square brackets, D forms with d. Primed or numbered codes have the meaning given here. No end group written: not given here. Tyr(Me)″ = methylated tyrosine, COc1ccc(C[C@H](N[*:1])C(=O)[*:2])cc1; Tyr(3,5-I2) = N[C@@H](Cc1cc(I)c(O)c(I)c1)C(=O)O; dGla = N[C@H](CC(C(=O)O)C(=O)O)C(=O)O; Dap = NC[C@H](N)C(=O)O; βAla = NCCC(=O)O

T1: leptin receptor (ObR) naturally expressed on MCF-7 and DU-45 cells (human, UniProt P48357 22-1165)
T1 sequence (looked up): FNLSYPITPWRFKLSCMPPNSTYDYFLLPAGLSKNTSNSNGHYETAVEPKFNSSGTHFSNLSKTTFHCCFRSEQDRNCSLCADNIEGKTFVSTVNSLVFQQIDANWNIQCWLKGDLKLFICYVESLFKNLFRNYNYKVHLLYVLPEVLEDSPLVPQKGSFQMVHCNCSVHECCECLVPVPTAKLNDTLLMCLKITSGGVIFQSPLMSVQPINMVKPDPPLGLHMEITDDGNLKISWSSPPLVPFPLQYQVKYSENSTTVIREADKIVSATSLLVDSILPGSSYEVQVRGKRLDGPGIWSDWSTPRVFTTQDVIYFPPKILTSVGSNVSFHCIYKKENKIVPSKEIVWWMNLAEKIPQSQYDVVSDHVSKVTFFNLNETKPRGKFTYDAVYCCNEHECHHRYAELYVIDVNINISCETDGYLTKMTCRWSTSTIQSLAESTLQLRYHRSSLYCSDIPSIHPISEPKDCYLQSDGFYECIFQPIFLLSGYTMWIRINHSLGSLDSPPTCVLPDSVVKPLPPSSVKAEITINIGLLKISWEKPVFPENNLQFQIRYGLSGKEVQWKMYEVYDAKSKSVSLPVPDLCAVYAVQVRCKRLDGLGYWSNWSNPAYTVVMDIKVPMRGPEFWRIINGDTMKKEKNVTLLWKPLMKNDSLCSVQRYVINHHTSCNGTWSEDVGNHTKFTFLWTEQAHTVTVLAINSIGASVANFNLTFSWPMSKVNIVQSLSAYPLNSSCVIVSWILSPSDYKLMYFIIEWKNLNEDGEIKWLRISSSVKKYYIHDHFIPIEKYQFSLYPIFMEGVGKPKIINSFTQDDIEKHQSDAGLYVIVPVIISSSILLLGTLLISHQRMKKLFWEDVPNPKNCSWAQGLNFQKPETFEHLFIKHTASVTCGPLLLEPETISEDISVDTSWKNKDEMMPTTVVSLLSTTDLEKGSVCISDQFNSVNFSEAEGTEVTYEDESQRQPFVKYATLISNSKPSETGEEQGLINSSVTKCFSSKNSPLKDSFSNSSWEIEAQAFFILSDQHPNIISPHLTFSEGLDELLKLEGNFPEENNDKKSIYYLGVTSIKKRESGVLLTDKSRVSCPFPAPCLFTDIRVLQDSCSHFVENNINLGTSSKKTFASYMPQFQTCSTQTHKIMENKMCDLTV

T2: human IgG Fc-conjugated ObR extracellular domain (R&D Systems) (human, UniProt P48357 22-839)
T2 construct: extracellular domain; it was detected with an antibody specific for the N-terminus of human ObR; also called ObR extracellular fragment-human Fc chimera; extracellular domain of ObR; not shown: human IgG Fc
T2 sequence (looked up): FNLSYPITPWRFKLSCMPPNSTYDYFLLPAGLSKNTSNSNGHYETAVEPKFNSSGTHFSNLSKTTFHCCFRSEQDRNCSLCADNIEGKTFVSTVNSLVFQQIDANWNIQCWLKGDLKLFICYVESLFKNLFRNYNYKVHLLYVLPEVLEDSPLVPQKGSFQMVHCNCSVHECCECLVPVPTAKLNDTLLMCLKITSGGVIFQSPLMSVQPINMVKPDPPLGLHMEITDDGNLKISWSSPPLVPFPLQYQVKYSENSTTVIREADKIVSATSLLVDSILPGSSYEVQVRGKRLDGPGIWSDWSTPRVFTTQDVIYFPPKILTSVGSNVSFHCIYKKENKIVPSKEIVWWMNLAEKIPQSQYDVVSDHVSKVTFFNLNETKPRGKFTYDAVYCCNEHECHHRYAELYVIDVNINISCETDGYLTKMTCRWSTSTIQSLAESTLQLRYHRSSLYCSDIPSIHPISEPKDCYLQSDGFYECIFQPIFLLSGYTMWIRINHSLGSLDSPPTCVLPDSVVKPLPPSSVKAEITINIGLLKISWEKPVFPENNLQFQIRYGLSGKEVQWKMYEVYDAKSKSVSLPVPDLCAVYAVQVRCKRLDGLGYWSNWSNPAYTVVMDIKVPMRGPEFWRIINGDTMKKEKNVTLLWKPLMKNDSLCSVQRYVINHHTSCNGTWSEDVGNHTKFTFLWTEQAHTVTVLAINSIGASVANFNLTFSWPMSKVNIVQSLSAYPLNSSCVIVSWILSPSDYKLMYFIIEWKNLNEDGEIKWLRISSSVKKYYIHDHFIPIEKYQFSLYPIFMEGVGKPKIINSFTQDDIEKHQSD


Columns and labels:
[1] = biological target: leptin receptor (ObR) naturally expressed on MCF-7 and DU-45 cells (human) (UniProt P48357); assay: cell-based or functional assay
[2] = biological target: T1, leptin receptor (ObR) naturally …; assay: cell-based or functional assay
[3] = biological target: T2, human IgG Fc-conjugated ObR …; assay: ELISA-type solid-phase binding assay, peptide on plate, ObR-Fc in solution
Procedure: For dot-blot and ELISA assays, the leptin fragments were dissolved in electroblot transfer buffer (25 mM Tris and […] buffer containing 20% methanol) and were applied to either a nitrocellulose membrane or dried upon ELISA plates (Otvos, L., Jr., and Szendrei, G. I. (1996) Enzyme-linked immunosorbent assay of peptides. In: Neuropeptide Protocols (G. B. Irvine and C. H. Williams, eds.). Humana Press, Totowa, N.J., pp. 269-275). The solid surfaces were blocked with 5% BSA in a PBS-0.5% Tween 20 buffer (PBST) for 3 hours at room temperature and were subsequently incubated with 10 μg/mL solution of human IgG Fc-conjugated ObR extracellular domain (R&D Systems) dissolved in Tris-buffered saline-0.1% Tween 20 buffer (TBST) containing 1% bovine serum albumin (BSA) for 1 hour. A monoclonal goat antibody (Santa Cruz Biotechnology), specific for the N-terminus of human ObR, was added to the assay mixture, followed by addition of a horseradish peroxidase(HRP)-conjugated anti-goat IgG donkey antibody for the dot-blot assay, and HRP-conjugated anti-goat Fc mouse antibody for ELISA assay (used at a 1:15,000 dilution in PBST and 1% BSA). Between reagents, the solid surfaces were washed extensively with PBST. After washing with PBST, the membrane was treated with a chemiluminescence luminol oxidizer (NEN) for 1 min. […] Optical absorbance values were read at 490 nm using a microplate reader. […]

[4] = biological target: T1, leptin receptor (ObR) naturally …; assay: cell-based or functional assay; remark: listed apart in the source

Row | Molecule | Relative stimulation (%) of MCF-7 cells, with 10 nM leptin [2] [%] | other results
1 | human leptin (R&D Systems) (from UniProt P41159 22-167) |  | MCF-7 cell growth (cell count, 5 days) [1]: 40%
2 | G[Tyr(3,5-I2)]STEVV[βAla]LSRL-NH2 (N-terminus assumed; SMILES CC(C)C[C@H](NC(=O)[C@H](CCCNC(=N)N)NC(=O)[C@H](CO)NC(=O)[C@H](CC(C)C)NC(=O)CCNC(=O)[C@@H](NC(=O)[C@@H](NC(=O)[C@H](CCC(=O)O)NC(=O)[C@@H](NC(=O)[C@H](CO)NC(=O)[C@H](Cc1cc(I)c(O)c(I)c1)NC(=O)CN)[C@@H](C)O)C(C)C)C(C)C)C(N)=O) [A4 peptide] | -10 | 
3 | [Tyr(Me)″]ST[dGla]VV[dA]LSRL-NH2 (N-terminus assumed; SMILES COc1ccc(C[C@H](N)C(=O)N[C@@H](CO)C(=O)N[C@H](C(=O)N[C@H](CC(C(=O)O)C(=O)O)C(=O)N[C@H](C(=O)N[C@H](C(=O)N[C@H](C)C(=O)N[C@@H](CC(C)C)C(=O)N[C@@H](CO)C(=O)N[C@@H](CCCNC(=N)N)C(=O)N[C@@H](CC(C)C)C(N)=O)C(C)C)C(C)C)[C@@H](C)O)cc1) [D12 peptide] | -43 | 
4 | VDKGSYLPRPTPPRPIYNRN (peptide, UniProt P37362 1-20, looked up, Negative control peptide; also called negative control antibacterial peptide pyrrhocoricin) [pyrrhocoricin] |  | binding result [3]: no binding
5 | G[Tyr(3,5-I2)]ST[dGla]VV[dA]LSRL-NH2 (N-terminus assumed; SMILES CC(C)C[C@H](NC(=O)[C@H](CCCNC(=N)N)NC(=O)[C@H](CO)NC(=O)[C@H](CC(C)C)NC(=O)[C@@H](C)NC(=O)[C@@H](NC(=O)[C@@H](NC(=O)[C@@H](CC(C(=O)O)C(=O)O)NC(=O)[C@@H](NC(=O)[C@H](CO)NC(=O)[C@H](Cc1cc(I)c(O)c(I)c1)NC(=O)CN)[C@@H](C)O)C(C)C)C(C)C)C(N)=O) [F2 peptide] | -15 | 
6 | [Tyr(Me)″]STEVV[βAla]LSRL-NH2 (N-terminus assumed; SMILES COc1ccc(C[C@H](N)C(=O)N[C@@H](CO)C(=O)N[C@H](C(=O)N[C@@H](CCC(=O)O)C(=O)N[C@H](C(=O)N[C@H](C(=O)NCCC(=O)N[C@@H](CC(C)C)C(=O)N[C@@H](CO)C(=O)N[C@@H](CCCNC(=N)N)C(=O)N[C@@H](CC(C)C)C(N)=O)C(C)C)C(C)C)[C@@H](C)O)cc1) [A11 peptide] | -3 | 
7 | [Tyr(3,5-I2)]S(β‑D‑glucose)TEVVALSRL[Dap](Ac)-NH2 [E1Free glycopeptide] |  | EC50 estimated from ERK1/2 stimulation in MCF-7 cells [4]: 100 to 150 nM
